From the supplement of paper PMC9876800

Tested on: peptide library, one residue held at a place counted from the S/T acceptor
Experiment: relative phosphorylation of the sub-library (ratio to the mean residue at this position); higher = residue favoured
Details: human
Method in brief: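 Relative sub-library phosphorylation is the ratio of each sub-library's signal to the mean residue at that position. The signal came from phosphorimaging of spots on streptavidin membranes, quantified by densitometry, after purified recombinant kinases reacted with biotinylated degenerate peptide sub-libraries in 384-well plates. Reactions held 50 μM peptide and 50 μM ATP spiked with γ-32P-ATP for 90 min under kinase-specific conditions.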

GRK6, construct: Full length, sequence (P43250 whole entry, looked up): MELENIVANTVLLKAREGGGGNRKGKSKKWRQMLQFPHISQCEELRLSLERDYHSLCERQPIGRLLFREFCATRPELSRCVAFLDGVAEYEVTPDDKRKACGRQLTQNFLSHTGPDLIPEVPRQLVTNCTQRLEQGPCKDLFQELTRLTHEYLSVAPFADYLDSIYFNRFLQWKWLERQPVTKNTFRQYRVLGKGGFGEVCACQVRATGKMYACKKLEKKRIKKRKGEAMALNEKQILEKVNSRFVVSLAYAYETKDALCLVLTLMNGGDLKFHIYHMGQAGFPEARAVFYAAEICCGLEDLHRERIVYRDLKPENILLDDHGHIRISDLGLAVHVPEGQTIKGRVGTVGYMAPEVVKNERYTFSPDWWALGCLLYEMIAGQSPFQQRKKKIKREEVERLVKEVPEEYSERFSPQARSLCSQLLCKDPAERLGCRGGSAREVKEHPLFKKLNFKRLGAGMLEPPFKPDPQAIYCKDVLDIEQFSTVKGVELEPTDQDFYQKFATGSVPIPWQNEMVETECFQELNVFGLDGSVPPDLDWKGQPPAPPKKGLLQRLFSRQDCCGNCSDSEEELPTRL

GRK6, construct: Full length (from UniProt P43250)
relative phosphorylation
Details | at +1 | at +2 | at +3 | at +4 | at -1 | at -2 | at -3 | at -4 | at -5
A fixed | 0.673 | 1.15 | 0.704 | 0.819 | 0.727 | 0.898 | 0.871 | 1.07 | 1.01
D fixed | 1.13 | 1.55 | 2.51 | 2.04 | 1.42 | 0.993 | 1.73 | 1.37 | 1.41
E fixed | 2.44 | 1.11 | 3.21 | 1.96 | 1.35 | 1.02 | 1.66 | 1.44 | 1.31
F fixed | 1.1 | 0.983 | 0.866 | 0.826 | 0.903 | 1.19 | 0.803 | 0.781 | 1.03
G fixed | 0.61 | 0.867 | 0.716 | 0.91 | 0.601 | 0.761 | 0.793 | 0.935 | 0.932
H fixed | 0.721 | 0.978 | 0.758 | 0.914 | 1.35 | 0.895 | 0.92 | 1.01 | 0.988
I fixed | 1.44 | 1.17 | 0.665 | 0.78 | 0.817 | 0.848 | 0.778 | 0.951 | 1.06
K fixed | 0.654 | 0.7 | 0.59 | 0.796 | 0.854 | 0.878 | 0.806 | 0.955 | 0.873
L fixed | 1.11 | 0.765 | 0.695 | 0.764 | 1.1 | 1.88 | 0.914 | 0.98 | 0.879
M fixed | 1.25 | 0.954 | 0.78 | 0.946 | 0.948 | 1.09 | 0.852 | 0.953 | 0.882
N fixed | 0.771 | 0.893 | 0.726 | 0.864 | 1.29 | 1.02 | 1.08 | 1.03 | 0.988
P fixed | 0.36 | 0.512 | 0.631 | 1.16 | 0.692 | 0.599 | 0.716 | 0.88 | 0.864
Q fixed | 1.03 | 0.763 | 0.653 | 0.852 | 0.82 | 0.87 | 0.899 | 0.887 | 0.775
R fixed | 0.736 | 0.811 | 0.696 | 0.626 | 0.942 | 1.2 | 1.59 | 1 | 0.928
V fixed | 1.24 | 1.43 | 0.821 | 0.763 | 0.947 | 0.766 | 0.713 | 0.844 | 1.06
W fixed | 0.794 | 1.16 | 0.991 | 1.12 | 0.745 | 1.23 | 0.937 | 0.997 | 1.01
Y fixed | 0.944 | 1.19 | 0.985 | 0.858 | 1.5 | 0.863 | 0.93 | 0.922 | 0.999
pThr fixed | 2.88 | 1.34 | 1.58 | 3.36 | 0.96 | 1.16 | 2.9 | 1.6 | 1.52
pTyr fixed | 3.28 | 1.43 | 1.67 | 2.06 | 1.5 | 1.51 | 1.82 | 1.82 | 1.7
